Target: HAP1-A (Huntingtin Associated Protein 1-A) (UniProt P54256)
Test: cell-based or functional assay

HAP1-A (Huntingtin Associated Protein 1-A), sequence (P54256 other isoform, or with tags, fused parts or gaps limits assumed): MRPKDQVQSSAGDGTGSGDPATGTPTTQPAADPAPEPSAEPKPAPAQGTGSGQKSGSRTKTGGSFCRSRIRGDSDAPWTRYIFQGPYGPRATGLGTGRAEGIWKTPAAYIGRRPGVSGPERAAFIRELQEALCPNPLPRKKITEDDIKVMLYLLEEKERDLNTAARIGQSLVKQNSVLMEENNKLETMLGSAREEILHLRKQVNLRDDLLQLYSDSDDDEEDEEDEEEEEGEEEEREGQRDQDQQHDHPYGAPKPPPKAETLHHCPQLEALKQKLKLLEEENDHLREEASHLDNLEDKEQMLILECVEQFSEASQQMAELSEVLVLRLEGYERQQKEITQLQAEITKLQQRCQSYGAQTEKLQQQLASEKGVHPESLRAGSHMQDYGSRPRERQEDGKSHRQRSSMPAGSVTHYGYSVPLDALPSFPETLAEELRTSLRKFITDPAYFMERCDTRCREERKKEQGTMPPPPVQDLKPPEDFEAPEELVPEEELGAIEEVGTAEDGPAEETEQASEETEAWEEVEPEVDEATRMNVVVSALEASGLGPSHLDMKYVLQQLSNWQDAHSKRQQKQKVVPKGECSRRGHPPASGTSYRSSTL

Row | percentage of HAP1-A and huntingtin double-transfected PC12 cells with elongated neurites | Substance
1 | 15.2% | N-terminal region of human huntingtin protein (amino acids 1-253) with 73 glutamines (HD-73Q) (from UniProt P42858 1-253)
2 | 7.5% | N-terminal region of human huntingtin protein (amino acids 1-253) with 120 glutamines (HD-120Q) (from UniProt P42858 1-253)
